Patent US20250235545A1, “POLYPEPTIDE CONJUGATE AND USE THEREOF” (SHANGHAI CHIXI BIOMEDICAL TECHNOLOGY CO., LTD, priority 2024, published 2025)
In brackets after ≈: the same amount, converted by molar mass. Where two headings read alike, the source gives them in different places. Where a SMILES comes first, the peptide text is derived from it. The star is where a group is joined. NEt(2-(20S-CPT-7-yl)ethyl) = CCN(CCc1c2c(nc3ccccc13)-c1cc3c(c(=O)n1C2)COC(=O)[C@]3(O)CC)*; Belotecan = CC[C@@]1(O)C(=O)OCc2c1cc1n(c2=O)Cc2c-1nc1ccccc1c2CCN(C(C)C)*; X8 = CC[C@@]1(O)C(=O)OCc2c1cc1n(c2=O)Cc2c-1nc1ccccc1c2CCN(C1CCCC1)*; Propanoyl(3-maleimido) = O=C1C=CC(=O)N1CCC(=O)*; PEG6 = NCCOCCOCCOCCOCCOCCOCCC(=O)O

Columns and labels:
[1] = system: colo320 colorectal cancer tumor model
Procedure, shortened: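 Female BALB/c nude mice, 6–8 weeks old, received 7.5×10^6 colo320 cells subcutaneously in the right chest. Once tumors reached at least 120 mm^3 they were randomized three per group. Treatment with test agents or saline control was given once weekly for four weeks.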

[2] = Tumor homogenate activation efficiency, sarcoma tissue (Examples 28, 37); format: in vitro ADME; details: pH 5.0, 37° C., 2 h; Table 5
Method: (§1) Buffer preparation: 50 mM PH buffer (MES), 250 mM NaCl, pH adjusted to 5.0 with 0.5 M of sodium hydroxide.
(§2) The polypeptide conjugate was prepared into a 1 mg/ml solution with pH 5.0 buffer, 100 μg of tumor tissue homogenate was added, (the tumor tissue homogenate was the homogenate of tumor tissues prepared with a Jingxin F6/10 handheld homogenizer), and the solution was placed at 37° C. for 2 h. The tumor tissue homogenate could effectively activate the polypeptide conjugate and release Belotecan, and the activation efficiencies of the drugs in tumor tissues were compared by high-performance liquid chromatography (HPLC) allowing determination of a decrease in the compounds and an increase in Belotecan:
(§3) Release percentage=peak area of Belotecan/total peak area of Belotecan and all other Belotecan-containing compounds
as §2, with “HPLC” for “high-performance liquid chromatography (HPLC)”, “Belotecan: […]” for “Belotecan:”

[3] = Tumor homogenate activation efficiency, ovarian cancer tissue (Examples 28, 37); format: in vitro ADME; details: pH 5.0, 37° C., 2 h; Table 5
Method: as §1, §2, §3
as §2, with “HPLC” for “high-performance liquid chromatography (HPLC)”, “Belotecan: […]” for “Belotecan:”

[4] = Tumor homogenate activation efficiency, non-small cell lung cancer tissue (Examples 28, 37); format: in vitro ADME; details: pH 5.0, 37° C., 2 h; Table 5
Method: as §1, §2, §3
as §2, with “HPLC” for “high-performance liquid chromatography (HPLC)”, “Belotecan: […]” for “Belotecan:”

[5] = system: sarcoma SJSA-1 tumor model; details: Table 2
Procedure, shortened: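 SJSA-1 cells (2×10^7, DMEM/10% FBS, under 15 passages) implanted subcutaneously in right chest of female BALB/c nude mice, 6-8 weeks old. At ≥100 mm^3, randomized three per group; dosing once weekly for three weeks, saline as control, day 1 = first treatment.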

[6] = Tumor homogenate activation efficiency, breast cancer tissue (Examples 28, 37); format: in vitro ADME; details: pH 5.0, 37° C., 2 h; Table 5
Method: as §1, §2, §3
as §2, with “HPLC” for “high-performance liquid chromatography (HPLC)”, “Belotecan: […]” for “Belotecan:”

[7] = Tumor homogenate activation efficiency, small cell lung cancer tissue (Example 28); format: in vitro ADME; details: pH 5.0, 37° C., 2 h; Table 5
Method: as §1, §2, §3

[8] = Homogenate activation efficiency, heart tissue (Examples 28, 37); format: in vitro ADME; details: pH 5.0, 37° C., 2 h; Table 5
[9] = system: SKBR3 (breast cancer tissue); test: cells; format: cell-based; details: CCK8, 48 h; Table 1
Procedure, shortened: (§4)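 5,000 cells/well; compound dilution series, triplicates; vehicle 0.1% DMSO; medium RPMI1640 or DMEM high glucose + 10% FBS + 1 mM pyruvate. 48 h, 37° C, 5% CO2. CCK8 ~2 h, OD450. IC50 calculated.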

[10] = system: SJSA-1 (sarcoma tissue); test: cells; format: cell-based; details: CCK8, 48 h; Table 1
Procedure, shortened: as §4

[11] = system: A2780 (ovarian cancer); test: cells; format: cell-based; details: CCK8, 48 h; Table 1
Procedure, shortened: as §4

[12] = system: A549 (non-small cell lung cancer); test: cells; format: cell-based; details: CCK8, 48 h; Table 1
Procedure, shortened: as §4

[13] = MTD determination in mice (Examples 27, 36, 44); format: in vivo; details: female, mouse, in vivo; mice, monitored for 14 d; Table 4
From the text: Test animals: 6-8 weeks old mice, all female; mice were grouped randomly, with six mice in each group, administered with drugs at different concentration gradients separately and monitored for 14 d. A mouse was euthanized at a loss of 20% of its initial weight and deemed to have died of poisoning.

[14] = 15 mg/kg once a week for four weeks, Table 3
[15] = 45 mg/kg once a week for four weeks, Table 3
[16] = Table 13 (Example 42), dose 45 mg/kg, once a week for four weeks, BALB/c mice
[17] = Table 14 (Example 43), dose 45 mg/kg, once a week for four weeks, BALB/c mice
[18] = 15 mg/kg once a week for three weeks
[19] = 45 mg/kg once a week for three weeks

Row | Compound | Mouse weight (%) [1, 14] | colo320 (colorectal cancer cell) growth rate (%) [1, 14] [%] | colo320 (colorectal cancer cell) mean tumor volume (mm^3) [1, 14] [mm^3] | Mouse weight (%) [1, 15] | colo320 (colorectal cancer cell) growth rate (%) [1, 15] [%] | colo320 (colorectal cancer cell) mean tumor volume (mm^3) [1, 15] [mm^3] | Mouse weight (%) [1, 17] | colo320 (colorectal cancer cell) growth rate (%) [1, 17] [%] | Percentage of release efficiency (%) Sarcoma tissue (SJSA1) [2] [%] | Percentage of release efficiency (%) Ovarian cancer tissue (A2780) [3] [%] | Percentage of release efficiency (%) Non-small cell lung cancer tissue (A549) [4] [%] | Mouse weight (%) [5, 18] | Percentage of release efficiency (%) Breast cancer tissue (SKBR3) [6] [%] | Percentage of release efficiency (%) Small cell lung cancer tissue (NCI-H841) [7] [%] | Percentage of release efficiency (%) Heart tissue [8] [%] | IC50 SKBR3 (breast cancer tissue) [9] [mg/L] | IC50 SJSA-1 (sarcoma tissue) [10] [mg/L] | IC50 A2780 (ovarian cancer) [11] [mg/L] | IC50 A549 (non-small cell lung cancer) [12] [mg/L] | MTD at 14 d [13] [mg/kg] | also measured
1 | CC[C@@]1(O)C(=O)OCc2c1cc1n(c2=O)Cc2c-1nc1ccccc1c2CCN(C(=O)CNC(=O)[C@H](Cc1ccccc1)NC(=O)CNC(=O)CNC(=O)CCOCCOCCOCCOCCOCCOCCNC(=O)CCN1C(=O)C=CC1=O)C(C)C [MI-6PEG-GGFG-Belotecan] ({Propanoyl(3-maleimido)-PEG6}-GGFG-Belotecan) | +27% | 1057.73 | 1171.5 | +34% | 525.03 | 581.5 | +34% | 525.03 | 83.4 | 81.5 | 72.7 | +29% | 67.7 | 77.3 | 1.9 | 6.15 (≈ 4.97 µM) | 1.50 (≈ 1.21 µM) | 2.60 (≈ 2.1 µM) | 3.61 (≈ 2.92 µM) | 180 | Mouse weight (%) [1, 16]: +34%; colo320 (colorectal cancer cell) growth rate (%) [1, 16]: 525.03%; colo320 (colorectal cancer cell) mean tumor volume (mm^3) [1, 16]: 581.5 mm^3; colo320 (colorectal cancer cell) mean tumor volume (mm^3) [1, 17]: 581.5 mm^3; SJSA-1 (sarcoma tissue) mean tumor volume (mm^3) [5, 18]: 1453.1 mm^3; SJSA-1 (sarcoma) Growth rate (%) [5, 18]: 1257.35%; Mouse weight (%) [5, 19]: +31%; SJSA-1 (sarcoma tissue) mean tumor volume (mm^3) [5, 19]: 979.5 mm^3; SJSA-1 (sarcoma) Growth rate (%) [5, 19]: 844.40%
2 | CCN(CCc1c2c(nc3ccccc13)-c1cc3c(c(=O)n1C2)COC(=O)[C@]3(O)CC)C(=O)CNC(=O)[C@H](CCCCN)NC(=O)[C@H](C)NC(=O)[C@H](C)NC(=O)CCOCCOCCOCCOCCOCCOCCNC(=O)CCN1C(=O)C=CC1=O [MI-6PEG-AAKG-D2] ({Propanoyl(3-maleimido)-PEG6}-AAKG-{NEt(2-(20S-CPT-7-yl)ethyl)}) | +27% | 943.33 | 1044.8 | +24% | 470.58 | 521.2 | +24% | 470.58 | 76.6 | 85.8 | 69.8 | +27% | 69.5 | 68 | 1.5 | 2.62 (≈ 2.12 µM) | 0.49 (≈ 0.397 µM) | 0.80 (≈ 0.649 µM) | 1.32 (≈ 1.07 µM) | 350 | colo320 (colorectal cancer cell) mean tumor volume (mm^3) [1, 17]: 521.2 mm^3; SJSA-1 (sarcoma tissue) mean tumor volume (mm^3) [5, 18]: 1215.6 mm^3; SJSA-1 (sarcoma) Growth rate (%) [5, 18]: 980.32%; Mouse weight (%) [5, 19]: +31%; SJSA-1 (sarcoma tissue) mean tumor volume (mm^3) [5, 19]: 945.6 mm^3; SJSA-1 (sarcoma) Growth rate (%) [5, 19]: 791.30%
3 | CC[C@@]1(O)C(=O)OCc2c1cc1n(c2=O)Cc2c-1nc1ccccc1c2CCN(C(=O)CNC(=O)[C@H](Cc1ccccc1)NC(=O)CNC(=O)CNC(=O)CCOCCOCCOCCOCCOCCOCCNC(=O)CCN1C(=O)C=CC1=O)C1CCCC1 [MI-6PEG-GGFG-D8] ({Propanoyl(3-maleimido)-PEG6}-GGFG-X8) | – | – | – | +17% | – | – | – | – | 72.7 | 76 | 77.5 | +19% | 81.2 | 66.7 | 3.1 | 11.26 (≈ 8.91 µM) | 2.35 (≈ 1.86 µM) | 3.77 (≈ 2.98 µM) | 4.93 (≈ 3.9 µM) | 250 | –
4 | CC[C@@]1(O)C(=O)OCc2c1cc1n(c2=O)Cc2c-1nc1ccccc1c2CCN(C(=O)CNC(=O)[C@H](CC(N)=O)NC(=O)[C@H](C)NC(=O)[C@H](C)NC(=O)CCOCCOCCOCCOCCOCCOCCNC(=O)CCN1C(=O)C=CC1=O)C1CCCC1 [MI-6PEG-AANG-D8] ({Propanoyl(3-maleimido)-PEG6}-AANG-X8) | – | – | – | +21% | – | – | – | – | 71.1 | 70.1 | 85.1 | +35% | 70.9 | 80.8 | 3 | 2.55 (≈ 2.02 µM) | 0.87 (≈ 0.691 µM) | 1.21 (≈ 0.961 µM) | 2.51 (≈ 1.99 µM) | 400 | –
